In this experiment the target is T1, recombinant human GARP (R&D Systems, catalog number 6055-LR) (human, UniProt Q14392 20-627).
T1 construct: Bought soluble protein; In the phage panning and Fab screening it was in part biotinylated; also called antigen
T1 sequence: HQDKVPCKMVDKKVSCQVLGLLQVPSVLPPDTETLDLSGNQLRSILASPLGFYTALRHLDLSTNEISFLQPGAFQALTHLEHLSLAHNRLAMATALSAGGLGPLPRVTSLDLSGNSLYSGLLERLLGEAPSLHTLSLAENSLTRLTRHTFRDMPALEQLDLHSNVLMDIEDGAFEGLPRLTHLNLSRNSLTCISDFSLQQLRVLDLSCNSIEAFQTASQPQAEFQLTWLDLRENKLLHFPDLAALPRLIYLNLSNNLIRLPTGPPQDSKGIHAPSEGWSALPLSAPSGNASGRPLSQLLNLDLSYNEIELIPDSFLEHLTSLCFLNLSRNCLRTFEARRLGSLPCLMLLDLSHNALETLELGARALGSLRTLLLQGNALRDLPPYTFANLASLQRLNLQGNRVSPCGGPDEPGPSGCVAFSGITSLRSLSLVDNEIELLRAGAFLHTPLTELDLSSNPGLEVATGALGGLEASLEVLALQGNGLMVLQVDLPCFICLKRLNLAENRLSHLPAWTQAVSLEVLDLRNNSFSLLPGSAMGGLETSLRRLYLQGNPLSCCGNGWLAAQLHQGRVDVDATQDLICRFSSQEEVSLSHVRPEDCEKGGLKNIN
Description: ELISA, Fab in E. coli culture supernatant on coated or NeutrAvidin-captured biotinylated GARP. As to the method:
50 μL GARP, which had been diluted to 2 μg/mL with PBS (0.01 M phosphate buffered saline (pH 7.4) containing 0.138 M sodium chloride and 0.0027 M potassium chloride; Sigma-Aldrich), was added to each well of a 384-well Maxi-sorp plate (Black, Nunc), and it was then incubated overnight at 4° C. for coating the plate. Alternatively, 50 μL of NeutrAvidin (Life Technologies) which had been diluted to 1 μg/mL with PBS was added to such a 384-well Maxi-sorp plate for coating the plate (by incubating overnight at 4° C.). Thereafter, the plate was washed with an ELISA buffer (PBS (Sigma-Aldrich) supplemented with 0.05% Tween-20 (Bio-RAD)) three times, and biotinylated GARP was then added thereto (1 pmol/50 μL PBS/well), followed by incubation at room temperature for 1 hour with mixing. The plate was washed with ELISA buffer three times, was then blocked with Blocker Casein (Thermo Scientific), and was further washed with the ELISA buffer three times. Thereafter, a culture supernatant containing Fab produced by Escherichia coli was added, and the plate was then incubated at room temperature for 1 hour with mixing. […] Ten minutes later, chemiluminescence was measured using a plate reader (Envision 2104 Multilabel Reader, Perkin Elmer), and GARP-bound Fab was isolated.

B1: 110F Fab (ELISA-positive clone from the n-CoDeR Fab phage library) (Fab, V domains shown)
VH: EVQLLESGGGLVQPGGSLRLSCAASGFTFSSYGMHWVRQAPGKGLEWVAGISWNSAITVYADSVKGRFTISRDNSKNTLYLQMNSLRAEDTAVYYCAKDAGGRYSGSYYFDYWGQGTLVTVSS
VL: QSVLTQPPSASGTPGQRVTISCTGSSSNIGAGYDVHWYQQLPGTAPKLLIYGNSNRPSGVPDRFSGSKSGTSASLAISGLRSEDEADYYCQSYDRSLNWVFGGGTKLTVLG
notes: Fab produced in Escherichia coli and tested as culture supernatant
B1: the binding result is given as “binds”.

Values taken from patent US20240360245A1 (Daiichi Sankyo, published 2024).
